Measured values from patent publication US20130216549A1.

Molecular target: recombinant human IP-10 (Peprotech) (human) (UniProt P02778)
Experiment: cell-based or functional assay

Chain of recombinant human IP-10 (Peprotech) (human) (P02778 22-98 limits assumed): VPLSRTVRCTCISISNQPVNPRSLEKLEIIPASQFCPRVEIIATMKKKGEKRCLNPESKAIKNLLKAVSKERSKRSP

Calcium flux IC50 (nM); 10 nM hIP-10: 89 nM | Chemotaxis IC50 (nM); 1 nM hIP-10: 90 nM
B1: CC21R3P5_C5 (scFv format) (scFv, part only; not given: scFv linker, part only)
scFv, part: QVQLVQSGGGVVQPGRSLRLSCAASGFTFSTYGMHWVRQAPGKGLEWVAVISYDGGTKYYADSVKGRFTISRDNSMKTLYLQMNSLRTEDTAVYYCAKDLGDLPPGLDYWGRGTMVTVSSCHEMICALLYSYNTHESIZEDSYELTQPPSVSVALGQTATITCGGSSIESKSVHWYQEKPGQAPVLVIYKDSNRPSVIPERFSGSNSGNTATLTIGRAQAGDEADYYCQVWDSSTGVVFGGGTKLTVL
